Results from article PMC6286077.

Target: phosphorylated PD-1 cytosolic domain, bound to large unilamellar vesicles (LUVs)
Experiment: FRET or BRET

fold selectivity of PD-1 toward full-length Shp2 over Shp1: 29 fold
Substance: Shp1, full length, SNAP-Tag fused, labeled with SNAP-Cell 505 (from UniProt P29350 1-595) (enzyme)
